Experiment: soluble on expression in E. coli; label from the status in PepcDB or PDB records

Sequence	soluble on expression in E. coli
MGSDKIHHHHHHMSQVVIAVLANAGGVGKSTLSVHLAYEVSRRKLKVALLDLDPQRSLDVFCGLEAAEAEKTMFKVLSKDFIGDWALASAWDEPRIEVCQGHPLLAEIANELVIRKRGEYMLADRLQKYSLPHDLVIVDCPATLGMLNVNALAAATHILVPIQLEMKAISGSAELVEWCMNTSEELQLTPKPQILGFVPSMYDETVAMHRQYHSQLPEIALQLDIKLYPKIRSSNEFKNASAHGLPLHKYRNKHPACKDFKQIADDVIQLIKNK	not soluble
MSLQVEKISIIGLGLIGGSLAKALKEKLGIESITAVDINEKSLSQALKEGFIKEGFTELNESVYNSDIIFICTPVKDAVEYITRLHGKVKAGCILTDTASTKGEIIDYVNSLDNPPCFIGGHPMAGTEKAGFSSSFSHLFENAYYIMSPSKNCPEESLEYLAEIIRGIGAIPIKLDSKEHDIITATISHVPHVIASALVNLVKFSDSPDGKMQTLAAGGFKDITRIASSNPKMWENIILSNKEIVKSTLNKFTETINTFIEYIDNENSNGIYNFFDSAKKFRDSIPNNRKGLIEPQNELIVDVVDKPGIIGEIATILGNNGINIKNINVSNSREFEQGCLRITLPDSGSVAEAYELLAKKGYKVFKIEGHHHHHH	soluble
MGSDKIHHHHHHMSNNLLVLQSDFGLVDGAVSAMIGVALQEAPTLGIHNLTHEITPYNIFEASYRLFQTVEYWPQGTTFVSVVDPGVGSDRKSVVALTSRNQYIVTPDNGTLSYIKKHVGIKAVREISEIENRRRNTELSYTFHGRDVYAFTGAKLASDHISFEEVGPELAIESIVELPVVETVIEDNLVRGAVDILDVRFGSLWTSITREEFYTLKPEFNDRFEVTIYNNDMLVYQNQVTYGKSFAAVRIGQPIIYINSLYRVGVAINQGSFANAYNVGVGPQWRIEIKKLN	not soluble
MSGSGMTPMLQATPEQARTLGAEEPIRPGQDRLAHAPADHPELPQPKIGILLANLGTPDNYDYWSMRRYLNEFLSDKRVIDYPAWKWQPLLQILILSKRPFSSGANYKLIWNHDKGESPLMTITKDQTAAIAAEIRSLYGNRVMVDFCMRYGNPSTESRVRAMVEAGCEKILFFPLYPHYAGATSATANDEFFRAMMKEKRQPAVRTVPEYYDNPLYIDALAQSVERAYAQLDHRPDVLVASYHGMPKRYLMAGDPYHCQCAKTSRLLRERLGWEKGAIDTTFQSVFGPEEWLKPYTVEHVAELARAGKKRIAVIAPAFSADCIETLEEINGEIREAFEEAGGEEFTYIPCLNDDEAHIRALVSVIEDNLAGWLARG	not soluble
MTTEHETHAAELGAPEPECARCGKVLPLCICDTVEPIASRTQLLILQHPQEQDRALGTARLTAQHFKNAEVRIGLSWPSLSKALGRTVHDPSRWAVLYLGSARAAELAEGREILAVDAKGQPEPHQDMILDEIEGVVLLDGTWSQAKALWWRNAWMLKCQRVILDPSAPSRYGRLRKEPRRDGLSTLEAAAMLLSRLEHRPEIETKLLEAFDRMLARFKQVQAERPDLAPKPKKRDWRRKKRGLEHHHHHH	not soluble
MAHHHHHHMVALEREYILGSFCELRIITSLSSTQLSKVTLRKPVEDEDTSTAERAEVFGTELIPGVPVHLPPGRSLSIFTSTGCTLLLVAAPTVLQRCYATSLGATWVRSLLDFHSHLERARVEARGRDDVGPRVLFVSDRHHCGASTYVRWLSNFAVRLGYHPLLLDGVLDTPAFAFPGSVALFHAQHCMDIEEEMNLTPGLYAQVGQSRVANPRLYQHWVQQLLPSGMEKMARSERCRVGGLFFDFGVVEPHAVEQAEAAAAAAVPSVDPTASASSAPAALGSDKSHTNPLDTLLDTIVAADIDHVCVVGSSWLRWKLVQRAWERFGGEGSMSIVQAMLDPRWNVPPEVDCGGGQHFKIFLLDSVELVRSVPVPLWNRQRWLQYFFGTPTSPVKPTLITLEASQVRVATVGAAAMDAMSTLLPMMDSEDVDRQKADVAAVSFITLQDVALKDRIVAISTATEYERSPDGELHRLPFSVFERRIRQSTVLGFALVESVTPERLTLLVSGCPLDKELGLCFLLTEEVLKS	not soluble
MHKLLISLMMLLSFQAFSQVQEYTLNNGLKVLVKEDHRAPVVVSMIWYNVGSADEPVGITGVSHAIEHMMFKGTSKYPVGVFSKTIAALGGQENAFTNNDYTAYYEKLDAGHLATSFELEADRMNNLLLNSEEFAKEIKVIQEERRLRTDNNPQALAFERFLATAHLTAPYNHPVIGWMNDLKQMKVEDLKKWYESYYAPNNATLVVVGDVNPEKVHALAEHYFGSIAKRPIASRKPQQEPSALGKKMVYINAPAKLPLLLIGYTVPSVKTAKNNWEPYALEIIAGILDAGESARFAKHLVRGNQVATGAEAYYNLYSRYQSQFIVYGAPSQDHQIKDLEKALITELEALKKAPVSNQELQRVKNQIIAQKTFEKDSIFGQAMELGLLETIGLGWKNTETYTKAINEITPEQIQQVAQRYFQENNMTVAELKPIRQEEVRP	not soluble
MNHLTNQYVMLHDEKRCIGCQACTVACKVLNDVPEGFSRVQVQIRAPEQASNALTHFQFVRVSCQHCENAPCVSVCPTGASYRDENGIVQVDKSRCIGCDYCVAACPFHVRYLNPQTGVADKCNFCADTRLAAGQSPACVSVCPTDALKFGRLDESEIQRWVGQKEVYRQQEARSGAVSLYRRKEVHQEGKA	not soluble
MKIGVLGLQGAVREHVRAIEACGAEAVIVKKSEQLEGLDGLVLPGGESTTMRRLIDRYGLMEPLKQFAAAGKPMFGTCAGLILLAKRIVGYDEPHLGLMDITVERNSFGRQRESFEAELSIKGVGDGFVGVFIRAPHIVEAGDGVDVLATYNDRIVAARQGQFLGCSFHPELTDDHRLMQYFLNMVKEAKMASSLK	soluble
MNDIPVQHNKNRCPSHPGDLLAEIIPATGKTKLEIAQMLGISRQHLYAILRAKKPISPSVSARLGKLFGDGAAVWLRMQAAYDAWHAEHETDVSQIPTLHVV	not soluble
MGSDKIHHHHHHMKSNVVVKYPVNSELANYAEKFWKKELAIYNLSLILNKMTPFVKRRSESYKSSLSAVKEIFKNVDDFQNFLNSVLRRSLDEYRVFFENYERLFNSFSSKIFSMRTKSRLVVGLGDESVYETSIRLHRNYGVPYIPGSALKGVAKHYAFSILARENGDEILRIYESVKEDLKARIAKRDKIKKNDVPEDYYLTAAVIQELFEKKFDELGAIRNTRVEIGDTVISVGDIVKIFGTQKEEGSVIFFDAFPTPEQLKDKPNLELDIMNPHYQPYYQHGEPPGDWHSPNPIFFLTVPAGVEFTFAVASRDLDDLAEKAEKLLKEALKKFGVGAKTSLGYGRFDARDDR	not soluble
MSLNYKNYTVMLVDDEQPILNSLKRLIKRLGCNIITFTSPLDALEALKGTSVQLVISDMRMPEMGGEVFLEQVAKSYPDIERVVISGYADAQATIDAVNRGKISRFLLKPWEDEDVFKVVEKGLQLAFLREENLRLQEETEAKNKQEGHHHHHH	soluble
AQSVPYGISQIKAPALHSQGYTGSNVKVAVIDSGIDSSHPDLNVRGGASFVPSETNPYQDGSSHGTHVAGTIAALNNSIGVLGVSPSASLYAVKVLDSTGSGQYSWIINGIEWAISNNMDVINMSLGGPTGSTALKTVVDKAVSSGIVVAAAAGNEGSSGSTSTVGYPAKYPSTIAVGAVNSSNQRASFSSAGSELDVMAPGVSIQSTLPGGTYGAYNGTCMATPHVAGAAALILSKHPTWTNAQVRDRLESTATYLGNSFYYGKGLINVQAAAQ	soluble
MNKGRIIQVMGPVVDIQFESGQLPDIYNAITIERPQGGTLTVEAAVHLGDNVVRCVAMASTDGLVRGLEAVDTGAPISVPVGKATLGRVFNVLGEPIDEQGEVNAEERHPIHRPAPEFEELSTADEILETGIKVIDLLAPYAKGGKIGLFGGAGVGKTVLIQELINNVAQEHGGLSVFAGVGERTREGNDLYHEMKDSGVISKTSMVFGQMNEPPGARLRVALTGLTMAEYFRDREGQDVLLFIDNIFRFTQAGSEVSALLGRMPSAVGYQPTLATEMGQLQERITSTKKGSITSIQAIYVPADDYTDPAPATTFAHLDATTNLERKLAEMGIYPAVDPLASTSRILSPAVVGEEHYRVARGVQQVLQRYNDLQDIIAILGMDELSDEDKLIVARARKIQRFLSQPFHVAEQFTGMPGKYVPVKETVRGFKEILEGKHDNLPEEAFYMVGTIDEAVEKAKKL	soluble
MGHHHHHHSHMSGSAMQEGLSPNHLKKAKLMFFYTRYPSSNMLKTYFSDVKFNRCITSQLIKWFSNFREFYYIQMEKYARQAINDGVTSTEELSITRDCELYRALNMHYNKANDFEVPERFLEVAQITLREFFNAIIAGKDVDPSWKKAIYKVICKLDSEVPEIFKSPNCLQELLHE	soluble
AIHAVCVLKGDSPVTGTIHLKEEGDMVTVTGEITGLTPGKHGFHVHEFGDNTNGCTSAGGHFNPHGKEHGAPEDENRHAGDLGNVVAGEDGKAVINMKDKLVKLTGPDSVIGRTLVVHVDEDDLGRGGHEQSKITGNAGGRLACGVIGITKE	soluble
MGSDKIHHHHHHLTDLKDALRTEALDAGFAKMGVCSPNAVPETAARLKAFVDAGFHGQMGWMAERMHWRGDASALWPEAKSVVMLAEPYTPDSDPLDALARKDRATISVYAQGRDYHDLVKKRLKRVGRWLLAQCPGEQIKVFVDTAPVMEKPLAQAAGLGWQGKHTNLLARDLGNWVFLGAIFTTVELPIDEPEAEHCGSCTACLDICPTNAFPAPFQLDARKCISYLTIEHKGPVDLALRAKLGNRIYGCDDCLAVCPWNKFAQTARDIRYAPRDDLRSPLLADLAALDDAGFRARFSGSPIKRIGRDRFVRNILYAIGNSGQAKLVDAARPLTDDPDVAVADAARWAMERLL	not soluble
MKVFIIGAAGGIGNRLSSLLHARGDAVSGMHRNLEQASKITDTGATAVLGDLIHNSTEELAELFRGHDAIVFSAGAHGTGQENTTLIDGAGLRKAADAASAANVSRFILVSAFPESSRGENTTENFEHYMKVKKSADVYLSHTDLDWVIVRPGVLQDEAGDGLVTAGLAINYGNVARDNVAAFIDEALHQPQLSKIIVELTDGSTPVAEAVERLIKLEHHHHHH	soluble
MGSDKIHHHHHHMNQTLRIGSGAAWWGDRVEPAALNAEHGALDYLCFETMAEATVSAAQVRLRRDSSFAGYDTYLDERMRAVLPACMRHGTRIISNQGWINPTGAAERIVQLLRDAGQHGVRVAAVCGSLITDRVLELADRVLENGAPVRSLAPDLISAEVYLGAEPIVAALRAGAQIVVTGRVADPSIFLAPMMHGFGWDPLDHERVGAGSAIGHLLECGAQVTGGYFCDPGFKELPEPWNFAFPIAEVQSDGTAVITKVAGSGGGVTLQTVKEQMLYEVHDPANYLTPDVVVDFTQARLEQIGPDRVRVTGLTGKPRTPTLKVTIGCAEGFIGEDMFFYAGPGALRRAQWARKILQERFRIVQLQAEELRIDFLGLNAIHGAATPADAVEPYEVAVRVAARTKTRAEAAKVGREVDGMAVSGIAHTGKRVPHQERWREVIGLWSALVPREAVPAHICYFES	not soluble
MKTQQREQALAIYQQHQGKITNRAIADTIGVSAKTIGIWKKQDKWKEALFSASKNEQKQRPINNDELNERQRLFCLYYVKSFNATQSAIKAGYSPDSAHVTGSRLLKNEKVAAEIRRIKKEMVNEMFIEAMDVLQVYIKIAFADITDYVTFGKKEVQAVGKSGPLFDEDDNPIMKEISFVDVKDSGLVDGTIVTEAKLGKEGIAIKLADKMKALEKLSLYFDLFPDQFKQKIENEKLKLAKQKAEKTDDSQEPIEIMIKRKERKS	not soluble
MGSDKIHHHHHHMSSVHAINQSYWFSTQLPHVESRTTRNSSHAYKTHSHAQFSIGAIEHGETLCHYRNETHHLQAGDLIFIDPQQPHSCNPPPGKMRSYHMLYLDTAWCLDQIAVHCNYQADSLRCNRVVLRDPTLFIRYQHLITLLHRGEITSADSLLNAMLTPVWQQYCLPEPALPHQALQTTTRHVRERLLNNLQESPSLETLADELNLRRETIVRQFRHDTGITPMAFLNNARIEYAKSLLKQGTPLVDTSYQSGFCDQSHFHKTFVQYTSATPGQYARSIFDNK	not soluble

Reference: the DeepSol protein solubility set
